From the DeepSol protein solubility set

Assay: soluble on expression in E. coli; label from the status in PepcDB or PDB records
In the case of “MEKRRVILVTDGDEFACRAIERVAAEIGGRCISRSQGNPTKLSGEQLVELILQTPHDPVFVMFDDCGALGEGAGEQALRYVATHEQIQVLGALAVASNTHQHEWTKVHVSIDRDGVMTEYGVDKEGFRDLEIGRINGDTVYCLDRLNIPLIVGIGDIGKMGYRDHAKYGAPITRKAVELILERSGGHAGKRKETESADREAAR”, the “soluble on expression in E. coli” value is reported as “not soluble”. With “MEKVHYAAIDVGSNAVRLLIKCVNSEGMEEPLSKVLIMRVPIRLGEDSFTKGYIGEEKTDNMVRLMRAYYEMMQIYRVKDYRACATSAMRDASNAEAVIAQIREKTGIHIDIIDGDEEARLVSDNHIEQIISDGGNYIYLDVGGGSTELTIPAAEIFLEVADITGAKTIIAPIVGLADGIIEDLYIRHQSQPSLEHHHHHH” the “soluble on expression in E. coli” value was “soluble”. In the case of “MEKVMIELEEQVNQLINQILLKAENQYELLIGQCRSKVKLTNTQEHILMLLSEGQKTNSELAKALNVSQAAVTKAVKTLVKEGMLEGKKDKDDGRVTYFVLTQEAQPIAQEHKEHHQETLGVYRSVLDQFDHQERQVIGRFLIKLAEKIEE”, the “soluble on expression in E. coli” value is reported as “not soluble”. For “MEKVVCIGCGVTIQTEDKTGLGYAPPASLTKENVICQRCFRLKNYNEIQDVSLTDDDFLNILHGIGETDSLVVKIVDIFDFNGSWINGLQRLVGGNPILLVGNKADILPKSLKRERLIQWMKREAKELGLKPVDVFLVSAGRGQGIREVIDAIEHYRNGKDVYVVGCTNVGKSTFINRIIKEVSGEEDIITTSQFPGTTLDAIEIPLDDGSSLYDTPGIINNHQMAHYVNKKDLKILSPKKELKPRTFQLNDQQTLYFGGLARFDYVSGERSPFICYMPNELMIHRTKLENADALYEKHAGELLTPPGKDEMDEFPELVAHTFTIKDKKTDIVFSGLGWVTVHDADKKVTAYAPKGVHVFVRRSLILEHHHHHH”, the “soluble on expression in E. coli” value was “soluble”. For “MEKYIKEQRSICDKYKAEYVESPNDLKLGIAQNVKDGIAPINGLRMPIENGTTGWYIWAGEEMGTEEDFFLPLHVQHIDEWAPEIKKYLGLPPGWRFLIAGDYEDVWYDPNLFDEDLEEDADEWEENMLQEYGWYMHSILAEDIDGIHANYHTHGLRDNFNHQDLQIALNMDPEVAHSVFCTIIEEIKSGKKFEQGIEYTNIIEGYPIIMKSFVEMDREVLRVLLPDERGILPTRPECDECYKTQLDDIEES”, the “soluble on expression in E. coli” value was “not soluble”. For “MELEDANVTKKVELRPLIGLTRGLPPTDLETITIDAIRTHRRLVEKADELFQALPETYKTGQACGGPQHIRYIEASIEMHAQMSALNTLYSILGFIPKVVVN”, the “soluble on expression in E. coli” value was “soluble”. With “MELGLAGKTALVAASSQGLGKAIARALVLEGTNVMITSRNEEKLHEVAEELNSLHKGRVAYTRTDVTNADDIRQLVAKTVETFGTIDLLVNNAGGPPAGTFETVSDEDWQYAFELNLLSYIRLIREALPYLKKKGGKIVNIASSSIKEPIPGLILSNTFRTGIVGLTKTLAVELAPDGILINTVAPGRIATERVAFLDKVNAEKLGITKEEMEARMKSAIPLGRYGTPEEFANVVVFLLSEANSYVTGQALIVDGGMVKAI” the “soluble on expression in E. coli” value was “soluble”. For “MELKKLMGHISIIPDYRQAWKMEHKLSDILLLTICAVISGAEGWEDIEDFGETHPDFLKQYGDFENGIPVHDTIARVVSCISPAKFHECFINWMRDCHSSDDKDVIAIDGKTLRHSYDKSRRRGAIHVISAFSTMHSLVIGQIKTDEKSNEITAIPELLNMLDIKGKIITTDAMGCQKDIAEKIQKQGGDYLFAVKGNQGRLNKAFEEKFPLKELNNPAHDSYAMSEKSHGREEIRLHIVCDVPDELIDFTFEWKGLKKLCVAVSFRSIIAEQKKELEMTVRYYISSADLTAEKFATAIRNHWHVENKLHWRLDVVMNEDDCKIRRGNAAELFSGIRHIAINILTNDKVFKAGLRRKMRKAAMDRNYLASVLTGSGLS”, the “soluble on expression in E. coli” value was “soluble”. For “MELLLSKVTDAGIDPSSVSGEEAITLWEHIGRHIASTSREKAHCLIISAEYRREIKQLCDSIEELRQALELLSLPEDVEDILSVKASLSERLVEVGDYNSALTEYIASTNIAVEYGFIDEYVLAIIGMGNLCDAYGDHNRALRYYQKIDAIDHAISSRSLRLRYKLYMLACYISLKRVAEASELLGECEELSILVSDKNLAAQTHLYRAKLHRLQEEYSEALLSISSIKYTTGSATTYWLSTMVKIETAYCLNGVGHTSLANLLLESIGKRIKKHSSPILAKRFYNAMSKVSASQGQFQQALSCEKRAFRIESDLIKHIPISELGAAQLRRLSRFELQLKLILSEIENKEL”, the “soluble on expression in E. coli” value was “not soluble”. For “MELQDLELQLEERLLGLEEQLRAVRMPSPFRSSALMGMCGSRSTDNLSCPSPLNVMEPVTELMQEQSYLKSELGLGLGEMGFEIPPGESSESVFSKQRSESSSICSGPSHANRRTGVPSTASVGKSKTPLVARKKVFRASVALTPTAPSRTGSVQTPPDLESSEEVDAAEGAPEVVGPKSESEVEEGHGKLPSMPAAEEMHKNVEQDELQQVIREIKESIVGEIRREIVSGLLAAVSSSKASNSKQDYHLEHHHHHH”, the “soluble on expression in E. coli” value was “not soluble”. In the case of “MELSDSKVIAADRATVWAALLSPEVLKECVPGCQEMSGSPDEGFEATVVQKVGPVKATFKGGVTLSEMVAPESLTLSGEGKGGAAGFAKGAARVRLEEGADGTTILSYEVEAKVGGKLAQLGSRIIDGFARKMADQFFTRFQEVLEGPGEAESPEAEASGDAKKKGWFKRVISGLEHHHHHH”, the “soluble on expression in E. coli” value is reported as “soluble”. With “MENALSTLPLTAPSAELPRFGPPHIPIREDWLDRQREEILDPGLPIVDAHHHLWDRPGQRYMFEDFLRDTGSGHNIRATVYVQCRSMYRLDGPAAMRPVGEAEFVNGVAARSASGMYGPMRACAAIVGYADLTLGAAVEEVLHALVRAAPDRLRGVRNMTAAHASPAVAPGFGRVPEGLLSDARFRAGYARLAPLGLSYDVWAFHSQLAEVLDLARAYPDTALIVNHAGGPLGIGPYAGQRDAVMRDWDHHLRALADCPNVALKLGGLGMHISGLRFHEQDMPPSSEALAEAWRPWIHTAIERFGAQRCMFESNFPVDKGMAAYAAVWNAFKRLARGATPRERQALFAGTAARLYRLPASVLALEHHHHHH” the “soluble on expression in E. coli” value was “not soluble”. For “MENEQQQAQTAPSCRAGCGFFGASATEGYCSQCFKNTLKRQQDTVRLTSPVVSPSSMAATSSALKSEPSSVDMCMKAAVSVSDETAKMDCEDIINVCDQINDDSVTVAESTAPTTITVDVPVPVKKANRCHMCKKRVGLTGFSCRCGGLYCGDHRYDQAHNCQFDYKTMERETIRKNNPVVVSDKVQRI”, the “soluble on expression in E. coli” value was “soluble”. With “MENGEAKQSVPLLTPYKMGRFNLSHRVVLAPLTRQRSYGNVPQPHAAIYYSQRTTPGGFLITEATGVSDTAQGYQDTPGIWTKEHVEAWKPIVDAVHAKGGIFFCQIWHVGRVSNSGFQPNGKAPISCSDKPLMPQIRSNGIDEALFTPPRRLGIEEIPGIVNDFRLAARNAMEAGFDGVEIHGANGYLIDQFMKDTVNDRTDEYGGSLQNRCKFPLEIVDAVAKEIGPDRVGIRLSPFADYMESGDTNPGALGLYMAESLNKYGILYCHVIEARMKTMGEVHACPHTLMPMRKAFKGTFISAGGFTREDGNEAVSKGRTDLVAYGRWFLANPDLPKRFQVDAPLNKYDRPTFYTSDPVVGYTDYPFLESTA” the “soluble on expression in E. coli” value was “soluble”. For “MENKYTHGVLFYHEHSGLKNINQGIGEVTTALSSICKHLSIQLSENEGDIIKYCQEIKTKNYAKDVDILFILGGDGTVNELINGVMSHDLQLPIGILPGGTFNDFTKTLNIAPNHKQASEQMISAQVGTYDVIKINNQYALNFVGLGLIVQNAENVQDGSKDIFGKLSYIGSTVKTLLNPTQFNYQLSIDDKTYSGETTMILTANGPFIGGSRIPLTDLSPQDGELNTFIFNEQSFSILNDIFKKRDSMNWNEITQGIEHIPGKKISLTTDPAMKVDIDGEISLETPIDIEVIPNAIQLLTVNDL”, the “soluble on expression in E. coli” value was “soluble”. With “MENPINELAAAVHDGLGLTYPPIIDMGPQLTREQLLASMSATMRRHKGGPVWLFAYGSLIWRPECTAVESQRGRVHGYHRGLYLWSHEHRGTPEVPGLVFGLDRGGSCTGFAYRLPDDCLEKSLLALWEREMPYPSYRPHWLNCRLEDGRKVQALGFVLERHLPSYAGNLPDSVLSQVLASASGRYGTTRDYVEQTAKALRSHAMPDLNLEARLKRCKSETAAAALEHHHHHH” the “soluble on expression in E. coli” value was “not soluble”. With “MENSFELMAREWHKNKADRWSLRYREEIIDTFEKDIFPFIGRRPIADIKPMELLETLKRMEKRGALEKMRKVRQRCGEVFRYAIITGRAEYNPAPDLAGALQTHKKQHLPLEHHHHHH” the “soluble on expression in E. coli” value was “not soluble”. In the case of “MENVCFQQRLRDLETRVRKWKFLKLGLTEVRLRPRDRRSTSVDQKHKECSSTSSSPQHQRPNNIGYLTSPMERKFTPLSMKPSPSRRDTEKDALEYEFLEGYKKSGTLEIDGEKQVVDPNEIHIISLLGSGSCGVVESATVRSKLMAVKTMYKNDNKENLKRILRDVRIMSMCNSPFIVTSYGYFMFDSSVKICMQIMSACCEKLLRRIYHSKLDFFPEFVAGHIVYSAISALDYLKEKHSIIHRDIKPSNILFDDSGNVKLCDFGISGFMTDSMAHSKSAGCPPYMAPERLTIETNSKYDVRSDVWSLGITVYQLVTGLYPFPLNDMEFTTLTIIANLNLPSPSLREETKRSFSPLFIEFLDLCLRKDVRERPEYRQLMKHDFYLDYDPASGSAYKFKAINGKCNQVADWFVDVIRLSKTEDELKSIPNTPCVN”, the “soluble on expression in E. coli” value is reported as “not soluble”. With “MENYLIDNLDRGILEALMGNARTAYAELAKQFGVSPETIHVRVEKMKQAGIITGARIDVSPKQLGYDVGCFIGIILKSAKDYPSALAKLESLDEVTEAYYTTGHYSIFIKVMCRSIDALQHVLINKIQTIDEIQSTETLIVLQNPIMRTIKP” the “soluble on expression in E. coli” value was “soluble”. In the case of “MEPKDTTTNDAFKGFTNTACPFLPCHKGVKREFNCLFCYCPLIAYECPGPYQVYTDKNGLTRKDCTNCTLPHDGYLASWNFIQKWLERPVIWSGAAQTTPPTRRPGRAPGDGDEELEHHHHHH”, the “soluble on expression in E. coli” value is reported as “soluble”. For “MEPPSPVGNPEIPSEIPKNAEKTVYKYIDEQGIEIFIEDPIYVEENGNTMVYGNPYDPTTSSQEIYEEEIVDEEYIFQVDSLPSTSSSSAAAPPPSKRARLIKDGVAYPSNTVLLTNQSLEAKNATFLAKAGARREEKEPKKQIPMINKHGSILNRNLPGMTNMFKVMAESALAKTDEMIKQEAMNNTVEEVEKGRKLDNSSRFGLENEESDQDGQSDTPPPMERLGEADDFQPTTTTFDQWPLYSNRAIDFKGFSTYQKKNYFENWKILSSFKKVFSKNFQFLAKILKFISMRDPHRNSRNRRGKNIPSGKTRFYTETADGNLIRADDGKGRLKQWTKEFTYKIILKKYDNQVTRGGDEGRGQFQRKIYTGFKGAGRLPFSIVTYSWHAGRPWNFVPPVTSRQTVRRPNWEKKSYEKVNMTSMPQMVSAYYEGFNIYSHCIVSFDEATAIMLGATPIDTNKLVIIIVAGPKISRNFPIFRLCSSVPLGYRQNGTFVIDLKRMGHCLLELRRDDNGIWNKPSGFSRFYKISENGDAIRVDKAGKLPAGMDYDVKIASKRYEHTQVQKNFVRKIYTAKGKNSESFPGSPEYAVIVYYWKGEPIQFEPAFKQNGVRTESKEYSRYQQIADEEQEFVEATGSMDPVVENLQKNLAPSPPPLLKRVTFPPEPQQSTSSTSAENLHELKLQLIRREMQNQDRFSAVLDRADGLLARMEQRFGVEHHHHIVHQEQEEEVWDHEQIIEEEEVIVQDTMEY”, the “soluble on expression in E. coli” value was “not soluble”. For “MEQCNERPKVSVIIPVYNTCNYVQEALESICQQTLEELEIIVIDDGSTDCSRAIVEEIAIKDTRIQVYKQSNQGLSITRNQGLKFSTGEYIYFMDSDDFLEPDALELCYRKCTKEALDFVFFDAETFTIEPNIPESSFDYQRTLDLPEKICSGIDMLKTQLKTYKFKSSVCLNLFHREFICEERLSFYPGILHEDQLFMIQAYLHASKTGFIRRSFFHRRIRTNSIMTKKFTWKNMEGYLTVTNELLRELPIYPKTYHHTIFFFLRQMLDAAVWQAHTLSLPQRIKLFSLCLKYYRPYVTMRTLMVLLLKTSIHPRQ”, the “soluble on expression in E. coli” value was “soluble”.
